Reference: a protein production outcome set (Wang et al. 2014)

Test: label from the status in PepcDB records

Question: Which protein production does the source give for “DRFPVTPVSREDLAGVLEAVERLRHWRPAAAGAWAVDYRGMLEGVHAQGVFDDGHWADLLRLLELSGAPREFGHGDLVLANVVRSRGRQVLIDWASSALYLPGLDLAQLWMLLGDVPGARARIEVEVADRADDRDGMMPFLVNLTLLLYRERRAHRRF” here?
Answer: failed

Question: Which protein production does the source give for “MAEEAALNFADFYDAELALHNAHFRVTAAVGRSDRVLDVGCGAGQTTRDAARAAEAGRAHGIDLSATMLEIARRRSAEEGLPNATFELADAQNYHFAKGEFDLCISRFGVMFFADPAVAFANIANAVRPGGRFIFMVWQGRDHNEWATAIHEALDPDSTGPVAAGKAFSLSETSVTSGLLETAGFTAIEFREINEPVFYGPDPETALVTIQTFENVKNALDRPATTAEIRARLLDMLEAHQTPHGVQFDSRAWLITGGRYGDSPPCFIGDFRSA” here?
Answer: failed

Question: For “MDLLRGSDYVGDGAWFRAEALQEIGAFAEAPDADSYDALLRIHDRYGAMVIGHIPDMLLHAPSRGTADGSGQRAALDAHLARNGGGADIEAGPAAGTRRIRYPAPEQARLSIIVADAGDGFHLSPCIDALQASLGGCACEILAIAADGEPGDAAKLLRCDPGLGLAARFQLGAEAASGDFLLFIDSRVELAQPDGLQALLGLAARPEVGAAAPRLLRPDGEALWRGPLLIGAGEGAAALFCDAGASEAGHLNRQAVEHNPGALRLECLLMAKAFYQQIGGMDASLPTLLDTAVDLGLRIRAAGRLPVWTPFVSARRHGALDVSEPPETCDADALSLRWNGWLGQDPAHNRHLSLAADKAFQIEDVYSAQWDASFHERTRVLALPAESKATEARMASPFRILQEDCQCQLTQIPAGQRLPSAGEIERMAPDALLMSARFDSASLAWLRGYRQRRPDVLAVLMLDKLDFGAGTTHRYGHSLLQAMAGMADRVIVPTESLYRMALAFADDVRLVPDGLEEARWFELQSLRRVGKKPRVGWVGSAAEAPDLLMLSGIILATAAELDWIVLGDCPEVLKPCLAEYHAFDLSSDDYPTRLASLSLDMAVMPKAATLANETGSPLRMFEFGALGVPVICSAVGELGLSPAPVARVENDVSSWGEALRELARDAAAAAQAGDGLRAWVRENCGLKRHLPLWQQAISR”, which protein production is on record?
Answer: failed

Question: For “MLNIQNYSASPHPGIVAERPQTPSASEHAEIAVVPSTTEHRGTDIISLSQAATKIQQAQQTLQSTPPISEENNDERTLARQQLTSSLNALAKSGVSLSAEQNENLRSTFSAPTSALFSASPMAQPRTTISDAEIWDMVSQNISAIGDSYLGVYENVVAVYTDFYQAFSDILSKMGGWLSPGKDGNTIKLNVDSLKSEISSLINKYTQINKNTILFPSQTGSGMTTATKAEAEQWIKELNLPDSCLKASGSGYVVLVDTGPLSKMVSDLNGIGSGSALELDNAKYQAWQSGFKAQEENLKTTLQTLTQKYSNANSLYDNLVKVLSSTISSSLETAKSFLQG”, which protein production is on record?
Answer: failed

Question: With “MHLKEKITTIIQGQRTGVLSTVRNDKPHSAFMMFFHEDFVLYVATDRQSKKITDIENNPNVHVLLGREGKKLDEDYIEVEGLASIEEDSTLKNKFWNNSLKRWLLRPEDPNYVLIKINPDTIYYIDGAGTTEPEFLRL” as the sequence, how does the protein production read?
Answer: not failed

Question: With “MENTVQEARRYLSNAREILSEKAKKNGIYYNDIKYVKLAGRAAYSGVLVALDGLLGKKDTRKSVEWYQEKLGKVDKKALTAFNSAYKILHLSMAYDGIELVSVSKDGLKQAEALINWVETRTAAA” as the sequence, how does the protein production read?
Answer: failed

Question: With “MGHHHHHHSHLYPGSVYGRLIDLCQPTQKKYQIAVTKVLGKNMDAIIVDSEKTGRDCIQYIKEQRGEPETFLPLDYLEVKPTDEKLRELKGAKLVIDVIRYEPPHIKKALQYACGNALVCDNVEDARRIAFGGHQRHKTVALDGTLFQKSGVISG” as the sequence, how does the protein production read?
Answer: not failed

Question: For “MGFYGGGSMASGRPESTGIDSLGIGKILAVYIKDNENLAIDEDKLQLTAELIRVFSASPGRDIVSQVNEDGGGSFSLSLDLQQFKKISDIENFFINLEDNPKGVIPCMNAAVHKVLFDQWETNEFENVMKINVRLHNYPESSISLKNLRAAYIGKLVTVHGTVVKVSTVKPLVTQMAFDCGKCKTGITREFTDGKFSPPLKCDSHGCKSKTFTPIRSSAQTIDFQKIRVQELQKPEDHEEGRVPRTVECELMEDLVDICIPGDVVTVTGIIGVINNYMDIGGGKSKTKNQGFYYLFIEAVSVKNTKRQSAFENSEDSSSSAQTADVGDLYSFSQRDLEFIVKFKEEYGSDTFRRILHSVCPSIYGHEIVKAGITLSLFGGVRKHSMDRNKVPVRGDIHVIIVGDPGLGKSQLLQAAAAISPRGIYVCGNATTRAGLTVAVVKDSMTNDYAFEAGAMVLADGGLCCIDEFDKMTTEHQALLEAMEQQCVSVAKAGLVASLSARTSVIAAANPVGGHYNRAKTVNENLKMSAALLSRFDLVFILLDKPDELLDKQVSEHIMSHHRMLGMQTCMQKGILYFQDCGWTLRKMTTFLRFLANCLGNIFPMHGILMSKDAGEIIQKFYLKLRDHNTSADSTPITARQLESLVRLAQARARVDLREEITVQDAMDVVEIMKESLYDKLIDEHGVVDFGRSGGMSQQKEAKRFLSALDKQSELQQKDCFSVSEMYSLADRIGLRVPDIDTFLENLNIAGYLLKKGPKTYQVLSSSYSRSQSSRSR”, which protein production is on record?
Answer: failed

Question: For “MEGAEEAGAEIAVDSKDLQQQSKAFDKLTDRVEDRQLDSSRVQSAMASIAASREADLNAKRLREKELASVKINPADVEFIVNELEIEKNVAERTLREHKGDAVAATRQLLSRYPL”, which protein production is on record?
Answer: failed

Question: Which protein production does the source give for “MENVSDDRFAEMVWEAVSGGATLKDVHGIPQDMMEGLYAHAYDFYHKGRLDEAETFFRFLCIYDFYNPDYIMGLAAVCQLKKQFQKAVDLYAVAFALSKNDYRPVFFTGQCQLFMRKAAKARQCFELVCEQSGLEHHHHHH” here?
Answer: failed

Question: With “VVFFRHLVSDDGSVRHTGDNLVGGVGQGGDDEAILVDLQRVPVHIDQIVFTVNSFTGQTFQEVQNAFCRLVDETNGQELARYTLAGGGAFTAQIMAKVHRAGQGWSMTAIGTPANGRTFQDLMPAILPVL” as the sequence, how does the protein production read?
Answer: failed

Question: Which protein production does the source give for “MSVAAEVAQVAQSAIDDFNAAYGLCLDDDRLEQWPTLFVDDCLYQVIARENVDNGLPAAVMYCDSKGMLADRVVALRKANVFPEHFNRHLIGRAVITGVEGDQVSAEASYVVFQTRNDGETRIYNAGKYVDRFDLSGGTVRLKSRTCIYDTLRIATLLATPI” here?
Answer: not failed

Question: With “MGCICFKSWRRSSSSPSITSTVIDDLENVREYDADDDGGHYPLIFREFSLEQLRIATDGFSAGNIVSEHNDSVPNIVYKGKLGDGRRIAVKRFQRLSWPDPFEFINEAQAVGRLRSEHMANLIGCCCDDNERLLVAEYMPNGTLAKHLFHWEKRPMKWEMRLKVALHTARALEYCNDKGIDLYHDLNPYRIMFDKTGIPKLSCFGLMKNSHEGKIYSTNLAFAPPEYLRLGTVIAESVTFSFGTLLLDLMSGRHIPPNHALDLFRGKNYLVLMDSALDGQFSDEDRTELIHVASRCFKTEPEERPSIKFLKATLSRLQKRAKLCPINVKRPMSPPSKNLPEKTKPATESLKLTPFGDACSRADLSSIHELLEKLGYEEDNGVGNEFSFQMWTGEMQENMDYKKHGDAAFLAKDFDTAIEFYTEFMTGAPTVSPTVLARRCLCYLMTEMFSEALSDAMQAQVASPEWPIPLYLQAACLFKLEMEAEAKEALRHGSALEAY” as the sequence, how does the protein production read?
Answer: failed

Question: For “MKSKRGFTLLEVLVALAIFATAAISVIRSVSQHINTVNYLEEKMFAAMVVDNQMAQVMLNPQSLAAREGSEQMAGRTWYWKLSPVKTADNLLKAFDVSVATEKGATPVVTVRSYVAN”, which protein production is on record?
Answer: failed

Question: Which protein production does the source give for “MKKLFPLLLLILSILVGCGKKEKHSVTEIAREKKRITALLYEKELPTDSVKQLYENSVQNKNLVGQMLFAIEVGKRMRNMSQYTDAMLYHQKGLNAALNLRDTIVAAQAWNHLGTDSRRIGALAEASDYHYKALSLIESFSGNQNRPAIKARSAALNGIGNINLELGYHDEAEKNFLKALQGEKELDSPLGQAINYANLGRIYRQRKEYDKARTYFLLSLEQNNMAENLMGIGLCSINLGEVDEEKGDYQKALQEYATAYKLMEQLSDRWHWLNSCIPMARINLKQGNERLYQHFISLAEGTAKEINSTSHLIEIYNLQYENLERKKEYKQALEAFCLSKTLSDSMSIAHKVSSIQETRFNYERNKSQKELEEIQQVSKAKQEKSKFILLSTLFALFISILLISVLTYAYRQGKKHNKLIKETDKLRSGFFTGITHEFRTPITVIQGLNEKMSSSPDLQASDRTELHKIIDRQSSHMLNLVNQLLDICKIRSGVSTPEWRNGDIVSFVQILIDSFAPYAQAQDITLELQPESKPIVVDFVPSYLQKIISNLLSNAIKYSLAGGRVVISLAKTKNEKNLIIRVADNGIGIDKTDQAHIFDIFYRGQSATEKHGSGVGLSFTNILVENLRGTIKVESQPGKGSAFTISIPTQNQSSSAEILPWLPSSDDIVMPVHIAPDDSPTSPMVAALNHRFEDERPTILLVEDNKDINLLVKLLLCDRYNVLSAANGKEGIALATEHIPDIIITDIMMPIMDGIEMTIRMKQSPLLCHIPIVALTAKSTEQDRLEGIKSGVVSYLCKPFSPEELLMRIEQLLKDRELLKKFYMQKLMLDRKPEEEPQPIDDSSMQFLLAAKDAVSGGIKQNPDFSAQDLAEKMCMSPSQLNRKLTSVVGCSTIGYIQQIKIKLACKLLADESKNISDISIEAGFSDPAYFSRTFKRYMNCSPSQYRQKLLAMPGSDKETV” here?
Answer: failed

Question: With “SLGVQPPNFSWVLPGRLAGLALPRLPAHYQFLLDLGVRHLVSLTERGPPHSDSCPGLTLHRLRIPDFCPPAPDQIDRFVQIVDEANARGEAVGVHCALGFGRTGTMLACYLVKERGLAAGDAIAEIRRLRPGSIETYEQEKAVFQFYQRTK” as the sequence, how does the protein production read?
Answer: not failed

Question: For “NLNAIQNFGAMNILCTDKTGTLTCDKIVLEKYINADGSDDHSRRILRHAFLNSYFQTGLKNLMDKAILAHVREENLEHLTEGYTKIDEIPFDFSRRRMSVVIEDQQGKRQIITKGAVEEMLNICSHAEFNGQVYELTDKLRSKAKRISDDMNRNGMRVLAIAQKSFISKARDFAVTDEDEMVLIGYLAFLDP”, which protein production is on record?
Answer: failed

Question: For “MAWFLLVIAGIEEIIAAIAMKYIDGTRKKWPIIVMTVGFGLSFYCLSQAMIVLPAGVAYAVWTGIGSIGVSAVGLIWFKERFQLSQVISLCLILAGVIGLRLTSSS”, which protein production is on record?
Answer: failed

Question: For “MDSVTLACGNGGKETNALIERVFMPYLKEWIVAFDEDAPKFEASGEYCVSTDSFVITPLIFNGGDIGKLCVCGSANDVSVQGGEPLYLNMGFILEEGLEISLLKQILQSIQKELFKANLKLLSLDTKVVPKGSVDKLFINTTCIGKIIKPGISSYHLQQGQAIILSDTIANHGASLFAMRNEIKLKTNLESDCQLLYPLLKPLFLSDLKIDALRDATRGGLASVLNEWANSSRVKIVIEEEKIPLKEETKGICEILGLEPYALANEGVFVLALNQKDAPKALEILKSNEKAKNACVIGKVFENPYPSVVLKNAWGFERILEVPEGELLPRIC”, which protein production is on record?
Answer: failed

Question: For “MVVAPYLAVAIGGSLGAMSRYLVTIMAQNAWGIKFPYGTLLVNTLGSFLAGFFLIVLVGRFSAEESFRLFLFTGFLGAFTTFSSFAAESLFMFEQGYWFKLMTNILVNNVGSLSMVFIGTLVAKYVLLGHQGSN”, which protein production is on record?
Answer: failed

Question: For “MVRLIFSDIDGTLINSNFKVTPKTRQGIKQIVAQGATFVPISARMPEAITPIMEQIGIDSYIISYNGALIQDMQQKTIASHTMDGQVALQVCSYVSKHYSKIAWNVYRYHEWYSCDKENEWVQKEEEIVGLQSKEMSLMELEKQDRIHKLLLMGEPSLMGELENTLKAQYPHLSIAQSAPYFIEIMAPGIEKGKSAKTLADYLDISLADSIAFGDNYNDLNLLEIVGKGFVMGNAPKDLQERIGNVTQDNDNDGIYYALVEYMEN”, which protein production is on record?
Answer: failed

Question: With “MGVTLAKGGNVSLSKAAPNLTQVLVGLGWDARSTTGAPFDLDASALVCSSGRVLGDEWFVFYNQLKSPDGSIEHTGDNLTGEGDGDDESLLVDLSKVPAHCDKIVFPVSIHMADERGQTFGQVSNAFIRVVNQADGQELARYDLSEDASTETAMIFGELYRYQGEWKFRAVGQGYASGLRGIALDFGVNVS” as the sequence, how does the protein production read?
Answer: not failed
